Experimental data reported in paper PMC2807882, “Conservation of DNA-binding specificity and oligomerisation properties within the p53 family”.

Tests used:
Conditions in all cases: protein: recombinant; tags: N-terminal 6xHis-lipoyl-TEV tag, cleaved; chain copies: 4
[1] = molecular target: T1, Hsp53 (Homo sapiens, UniProt P04637 1-393); experiment: fluorescence anisotropy competition titration; 25 mM sodium phosphate (purification buffer pH 7.2), 225 mM NaCl, 10% v/v glycerol, 5 mM DTT, 0.2 mg/mL BSA, 22 C
T1 sequence (P04637 whole entry): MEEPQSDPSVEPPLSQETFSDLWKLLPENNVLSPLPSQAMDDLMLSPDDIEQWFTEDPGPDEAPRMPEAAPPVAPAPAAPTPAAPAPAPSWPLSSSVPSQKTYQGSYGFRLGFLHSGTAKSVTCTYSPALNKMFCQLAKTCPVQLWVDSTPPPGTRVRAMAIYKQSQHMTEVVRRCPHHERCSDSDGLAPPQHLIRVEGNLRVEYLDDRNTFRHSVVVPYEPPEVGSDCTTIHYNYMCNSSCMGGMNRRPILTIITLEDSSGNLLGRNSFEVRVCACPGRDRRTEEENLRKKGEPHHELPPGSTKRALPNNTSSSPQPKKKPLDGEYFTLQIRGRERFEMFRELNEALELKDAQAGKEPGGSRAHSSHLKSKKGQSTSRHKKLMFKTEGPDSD

[2] = molecular target: T2, Dmp53 (Drosophila melanogaster, UniProt Q9N6D8 1-385); experiment: anisotropy competition; 25 mM NaPi, 225 mM NaCl, 10% v/v glycerol, 5 mM DTT, 0.2 mg/mL BSA, 22°C; 20 nM labelled DNA; pH not stated for the binding assay
T2 sequence: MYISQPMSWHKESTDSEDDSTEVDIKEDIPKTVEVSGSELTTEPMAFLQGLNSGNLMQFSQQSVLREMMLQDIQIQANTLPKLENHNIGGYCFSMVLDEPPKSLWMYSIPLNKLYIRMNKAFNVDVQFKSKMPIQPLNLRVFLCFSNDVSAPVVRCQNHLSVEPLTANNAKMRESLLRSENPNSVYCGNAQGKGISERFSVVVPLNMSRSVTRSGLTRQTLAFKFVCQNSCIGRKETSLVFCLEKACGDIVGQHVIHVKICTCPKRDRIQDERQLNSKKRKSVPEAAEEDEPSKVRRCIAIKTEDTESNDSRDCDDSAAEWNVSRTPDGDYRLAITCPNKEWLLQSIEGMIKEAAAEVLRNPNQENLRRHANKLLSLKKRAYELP

[3] = molecular target: Mmp53 (Mus musculus, UniProt P02340 1-390); experiment: as above
Mmp53, sequence (P02340 whole entry): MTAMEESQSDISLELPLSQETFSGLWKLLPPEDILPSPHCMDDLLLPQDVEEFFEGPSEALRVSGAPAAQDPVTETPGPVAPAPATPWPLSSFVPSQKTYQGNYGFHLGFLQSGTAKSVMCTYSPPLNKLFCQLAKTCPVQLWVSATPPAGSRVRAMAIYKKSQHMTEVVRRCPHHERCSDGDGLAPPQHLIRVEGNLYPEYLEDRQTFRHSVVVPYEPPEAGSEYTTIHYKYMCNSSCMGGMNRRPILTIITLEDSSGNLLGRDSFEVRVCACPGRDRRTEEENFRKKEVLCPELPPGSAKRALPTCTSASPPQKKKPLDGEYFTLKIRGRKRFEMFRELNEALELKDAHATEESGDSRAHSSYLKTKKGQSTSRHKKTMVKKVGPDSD

[4] = molecular target: T3, Drp53 (Danio rerio, UniProt P79734 1-373); experiment: as above
T3 sequence: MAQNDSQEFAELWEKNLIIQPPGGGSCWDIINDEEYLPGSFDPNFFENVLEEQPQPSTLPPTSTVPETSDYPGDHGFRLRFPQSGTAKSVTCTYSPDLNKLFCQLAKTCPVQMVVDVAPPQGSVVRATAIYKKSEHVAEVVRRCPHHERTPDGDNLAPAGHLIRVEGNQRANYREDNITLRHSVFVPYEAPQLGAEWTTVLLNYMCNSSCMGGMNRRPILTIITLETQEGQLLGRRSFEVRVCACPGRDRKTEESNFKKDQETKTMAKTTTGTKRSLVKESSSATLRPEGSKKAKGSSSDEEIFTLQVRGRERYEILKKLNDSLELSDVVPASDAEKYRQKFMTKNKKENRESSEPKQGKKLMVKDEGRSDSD

[5] = molecular target: T1, Hsp53; experiment: as above
[6] = molecular target: T4, ΔNp73β (Homo sapiens, UniProt O15350-9 1-450); experiment: as above
T4 sequence: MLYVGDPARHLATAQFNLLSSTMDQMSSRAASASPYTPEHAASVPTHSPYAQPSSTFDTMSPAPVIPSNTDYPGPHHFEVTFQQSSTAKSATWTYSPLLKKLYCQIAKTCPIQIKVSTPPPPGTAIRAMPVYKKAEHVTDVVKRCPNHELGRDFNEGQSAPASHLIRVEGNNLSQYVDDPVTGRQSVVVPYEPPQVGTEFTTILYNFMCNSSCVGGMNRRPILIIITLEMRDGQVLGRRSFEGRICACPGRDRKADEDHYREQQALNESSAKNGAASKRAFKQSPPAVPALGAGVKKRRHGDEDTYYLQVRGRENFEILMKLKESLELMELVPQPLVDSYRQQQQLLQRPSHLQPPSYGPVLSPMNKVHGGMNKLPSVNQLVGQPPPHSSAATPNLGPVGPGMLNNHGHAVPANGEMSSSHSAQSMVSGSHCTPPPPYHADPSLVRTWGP

[7] = molecular target: T5, ΔNp63β (Homo sapiens, UniProt Q9H3D4-4 1-461); experiment: as above
T5 sequence: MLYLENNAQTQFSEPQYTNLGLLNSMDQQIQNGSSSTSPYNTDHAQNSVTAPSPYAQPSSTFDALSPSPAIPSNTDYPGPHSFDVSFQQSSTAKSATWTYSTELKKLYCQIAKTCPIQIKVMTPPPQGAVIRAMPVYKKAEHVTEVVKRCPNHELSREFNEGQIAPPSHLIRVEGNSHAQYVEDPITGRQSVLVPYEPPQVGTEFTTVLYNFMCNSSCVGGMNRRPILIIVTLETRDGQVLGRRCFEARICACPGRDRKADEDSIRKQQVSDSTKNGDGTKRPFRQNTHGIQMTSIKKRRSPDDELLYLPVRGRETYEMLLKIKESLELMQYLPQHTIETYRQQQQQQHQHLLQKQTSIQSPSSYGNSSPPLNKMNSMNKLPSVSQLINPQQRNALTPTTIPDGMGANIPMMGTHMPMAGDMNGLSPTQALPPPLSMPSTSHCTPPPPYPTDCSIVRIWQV

[8] = molecular target: T6, p73CT (Homo sapiens, UniProt O15350 104-383); experiment: as above
T6 sequence: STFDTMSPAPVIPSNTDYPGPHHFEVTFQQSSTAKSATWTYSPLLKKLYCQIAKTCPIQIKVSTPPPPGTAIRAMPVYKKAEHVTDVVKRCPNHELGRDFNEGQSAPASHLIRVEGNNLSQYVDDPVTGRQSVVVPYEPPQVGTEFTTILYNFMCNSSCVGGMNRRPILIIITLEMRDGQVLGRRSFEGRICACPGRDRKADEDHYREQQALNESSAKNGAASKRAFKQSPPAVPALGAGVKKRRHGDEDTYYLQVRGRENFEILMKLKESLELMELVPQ

B1: Ref competitor (dsDNA)
DNA 1: CGCGGACATGTCCGGACATGTCCCGC
DNA 2: GCGGGACATGTCCGGACATGTCCGCG
Kd [1]: 75.9 nM | Kd [2]: -7.56 log10(M) | Kd [3]: -6.88 log10(M) | Kd [4]: -7.42 log10(M) | Kd [5]: -7.12 log10(M) | Kd [6]: -7.62 log10(M) | Kd [7]: -7.45 log10(M) | Kd [8]: -6.83 log10(M)
